Residue numbers refer to the chain shown, from its start.
Legend:
Experiment in all cases: AUC
[1] = target: T1, phage λ terminase large subunit TerL^λ-D178N (phage λ, UniProt P03708 1-641, D178N)
T1 sequence (looked up): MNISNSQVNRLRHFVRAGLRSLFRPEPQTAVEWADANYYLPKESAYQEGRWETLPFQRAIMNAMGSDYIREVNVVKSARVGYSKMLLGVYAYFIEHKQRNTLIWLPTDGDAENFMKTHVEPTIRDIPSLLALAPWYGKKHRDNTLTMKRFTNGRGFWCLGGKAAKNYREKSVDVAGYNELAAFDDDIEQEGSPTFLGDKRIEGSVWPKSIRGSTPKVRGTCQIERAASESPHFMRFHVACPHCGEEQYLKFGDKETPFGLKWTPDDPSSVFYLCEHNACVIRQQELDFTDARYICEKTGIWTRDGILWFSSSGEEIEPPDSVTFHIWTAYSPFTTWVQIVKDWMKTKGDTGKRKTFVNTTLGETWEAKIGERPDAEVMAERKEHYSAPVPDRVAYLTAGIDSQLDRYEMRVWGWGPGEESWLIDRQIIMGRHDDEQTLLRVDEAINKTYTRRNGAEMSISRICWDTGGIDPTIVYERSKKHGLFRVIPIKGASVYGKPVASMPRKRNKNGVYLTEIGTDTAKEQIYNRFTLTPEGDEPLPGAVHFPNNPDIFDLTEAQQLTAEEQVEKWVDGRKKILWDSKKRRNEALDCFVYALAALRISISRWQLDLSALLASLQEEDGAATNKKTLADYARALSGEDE

[2] = target: T2, phage λ terminase large subunit TerL^λ, wild type (phage λ, UniProt P03708 1-641)
T2 sequence (looked up): T1 sequence (looked up) with N178D

AUC = target: the molecule itself

Measured: binding result

B1: phage λ terminase small subunit TerS^λ (natural protein, UniProt P03707 1-181, looked up)
chain: MEVNKKQLADIFGASIRTIQNWQEQGMPVLRGGGKGNEVLYDSAAVIKWYAERDAEIENEKLRREVEELRQASEADLQPGTIEYERHRLTRAQADAQELKNARDSAEVVETAFCTFVLSRIAGEIASILDGLPLSVQRRFPELENRHVDFLKRDIIKAMNKAAALDELIPGLLSEYIEQSG
binds: all assays above

From PMC7416571 (Journal of molecular biology, 2019)
